Legend:
Test in all cases: peptide microarray, anti-mouse IgG DyLight 650, MMC2 heatmap (Example 17)
Peptide_016 = target: T1, Peptide_016
T1 peptide: HHHVKQIESKTAFQE
Experimental: (§1) 5, 1, 0.2, 0.04, 0.008 and 0.0016 μg/mL serial dilutions were incubated on a single multi-well microarray slide at 30° C. for 1 hour. The slide includes 21 individual mini-arrays (one mini-array per sample dilution).
(§2) DyLight 650 was used as a label. False-positive binding to a peptide was evaluated by performing one additional control incubation in which only a secondary antibody was applied on the same microarray slide. Before performing each step, the microarrays were washed with a washing buffer.
(§3) To visualize the obtained results and compare binding regions across individual cultures, as shown in FIGS. 21A to 21D, heatmap diagrams were calculated. In FIGS. 21A to 21D, the fluorescence intensity is expressed in a color-coded manner, white indicates no binding, and red indicates strong binding. For all evaluations, the MMC2-value of the average pixel fluorescence for each peptide was calculated.

Peptide_028 = target: T2, Peptide_028
T2 peptide: FQEALDAAGDKLVVV
Experimental: as §1, §2, §3

Peptide_030 = target: T3, Peptide_030
T3 peptide: EALDAAGDKLVVVDF
Experimental: as §1, §2, §3

Peptide_032 = target: T4, Peptide_032
T4 peptide: LDAAGDKLVVVDFSA
Experimental: as §1, §2, §3

Peptide_036 = target: T5, Peptide_036
T5 peptide: GDKLVVVDFSATWCG
Experimental: as §1, §2, §3

Peptide_038 = target: T6, Peptide_038
T6 peptide: KLVVVDFSATWCGPC
Experimental: as §1, §2, §3

Peptide_042 = target: T7, Peptide_042
T7 peptide: VDFSATWCGPCKMIK
Experimental: as §1, §2, §3

Peptide_043 = target: T8, Peptide_043
T8 peptide: DFSATWCGPCKMIKP
Experimental: as §1, §2, §3

Peptide_064 = target: T9, Peptide_064
T9 peptide: EKYSNVIFLEVDVDD
Experimental: as §1, §2, §3

Peptide_071 = target: T10, Peptide_071
T10 construct: also called FLEVDVDDCQDVASE
T10 peptide: FLEVDVDDCQDVASE
Experimental: as §1, §2, §3

Peptide_073 = target: T11, Peptide_073
T11 construct: also called EVDVDDCQDVASECE
T11 peptide: EVDVDDCQDVASECE
Experimental: as §1, §2, §3

Peptide_075 = target: T12, Peptide_075
T12 peptide: DVDDCQDVASECEVK
Experimental: as §1, §2, §3

Peptide_076 = target: T13, Peptide_076
T13 peptide: VDDCQDVASECEVKC
Experimental: as §1, §2, §3

Peptide_081 = target: T14, Peptide_081
T14 peptide: DVASECEVKCMPTFQ
Experimental: as §1, §2, §3

Peptide_082 = target: T15, Peptide_082
T15 peptide: VASECEVKCMPTFQF
Experimental: as §1, §2, §3

Peptide_083 = target: T16, Peptide_083
T16 peptide: ASECEVKCMPTFQFF
Experimental: as §1, §2, §3

Peptide_001 = target: T17, Peptide_001
T17 peptide: VATAADVHSQHHHHH
Experimental: as §1, §2, §3

Peptide_087 = target: T18, Peptide_087
T18 peptide: EVKCMPTFQFFKKGQ
Experimental: as §1, §2, §3

Peptide_088 = target: T19, Peptide_088
T19 peptide: VKCMPTFQFFKKGQK
Experimental: as §1, §2, §3

Peptide_091 = target: T20, Peptide_091
T20 peptide: MPTFQFFKKGQKVGE
Experimental: as §1, §2, §3

Peptide_098 = target: T21, Peptide_098
T21 peptide: KKGQKVGEFSGANKE
Experimental: as §1, §2, §3

Peptide_002 = target: T22, Peptide_002
T22 peptide: ATAADVHSQHHHHHH
Experimental: as §1, §2, §3

Peptide_103 = target: T23, Peptide_103
T23 peptide: VGEFSGANKEKLEAT
Experimental: as §1, §2, §3

Peptide_106 = target: T24, Peptide_106
T24 construct: also called FSGANKEKLEATINE
T24 peptide: FSGANKEKLEATINE
Experimental: as §1, §2, §3

Peptide_003 = target: T25, Peptide_003
T25 peptide: TAADVHSQHHHHHHH
Experimental: as §1, §2, §3

Peptide_006 = target: T26, Peptide_006
T26 peptide: DVHSQHHHHHHHHVK
Experimental: as §1, §2, §3

Peptide_005 = target: T27, Peptide_005 (human)
T27 construct: 15-mer on microarray; not native form, recombinant insert region
T27 peptide: ADVHSQHHHHHHHHV
Experimental: as §1, §2, §3

binding result (Peptide_016): binds | binding result (Peptide_028): no binding (tested: 5 ug/mL) | binding result (Peptide_030): no binding (tested: 5 ug/mL) | binding result (Peptide_032): no binding (tested: 5 ug/mL) | binding result (Peptide_036): no binding (tested: 5 ug/mL) | binding result (Peptide_038): binds | binding result (Peptide_042): no binding (tested: 5 ug/mL) | binding result (Peptide_043): no binding (tested: 5 ug/mL) | binding result (Peptide_064): no binding (tested: 5 ug/mL) | binding result (Peptide_071): no binding (tested: 5 ug/mL) | binding result (Peptide_073): no binding (tested: 5 ug/mL) | binding result (Peptide_075): no binding (tested: 5 ug/mL) | binding result (Peptide_076): no binding (tested: 5 ug/mL) | binding result (Peptide_081): no binding (tested: 5 ug/mL) | binding result (Peptide_082): no binding (tested: 5 ug/mL) | binding result (Peptide_083): no binding (tested: 5 ug/mL) | binding result (Peptide_001): no binding (tested: 5 ug/mL) | binding result (Peptide_087): no binding (tested: 5 ug/mL) | binding result (Peptide_088): no binding (tested: 5 ug/mL) | binding result (Peptide_091): no binding (tested: 5 ug/mL) | binding result (Peptide_098): no binding (tested: 5 ug/mL) | binding result (Peptide_002): no binding (tested: 5 ug/mL) | binding result (Peptide_103): no binding (tested: 5 ug/mL) | binding result (Peptide_106): no binding (tested: 5 ug/mL) | binding result (Peptide_003): no binding (tested: 5 ug/mL) | binding result (Peptide_006): binds | binding result (Peptide_005): no binding (tested: 5 ug/mL)
B1: monoclonal antibody B264 (antibody, mouse IgG1, kappa, V domains shown)
VH: QVQLQQSGAELARPGASVKMSCKASGYTFTSYTMHWVKQRPGQGLEWIGYINPTSDYTNYNQKFKDKATLTADKSSSTAYMQLSSLTSEDSAVYFCASEGGFLYYFDYWGQGTTLTVSS
VL: DVLMTQTPLSLPVSLGDQASISCRSSQSIVHSNGNTYLEWYLQKPGQSPKLLIYKVSNRFSGVPDRFSGSGSGTDFTLKISRVEAEDLGVYYCFQGSHVPYTFGGGTKLEIKR
notes: also called AB264; B264 (Trx1-mIgG1)

Source: US20240192215A1 (E AND S HEALTHCARE, published 2024)
